{"source": "the nanobody polyreactivity screen of Harvey et al. (2022)"}
{"assay": "yeast display, Sf9 membrane polyspecificity reagent, FACS + sequencing; frameworks hold sequencing errors", "summary_of_the_method": "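Galactose induction of a Saccharomyces cerevisiae BJ5465 synthetic nanobody display library ran 36–48 hours. The cells were then stained for 1 hour at 4 °C with 10% biotinylated, detergent-solubilized Sf9 membrane reagent, pulled down on streptavidin microbeads and FACS-sorted into low and high (top ~1%) gates on expression and reagent-binding fluorescence. Labels for polyreactivity follow the gate of origin.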"}
{"sequence": "QVQLVESGGGLVQAGGSLRLSCAASGRTLVLNMGWYRQAPGKQRELVATINSGGSTYYADSVKGRFTISRANAKNTVYLQMNSLKPEDSAVYYCAVLSSDGKFDYWGQGSQVTVSS", "polyreactivity (PSR sort gate)": "low polyreactivity"}
{"sequence": "QVQLVESGGGLVQAGGSLRLSCAASGRTLVPYAMGWYRQAPGKERELVAAINSSGGSTYYADSVKGRFTISRDNEKNTVYLQMNSLKPEDTAVYYCNVQSVHFRLWKDNYWGQGTQVTVSS", "polyreactivity (PSR sort gate)": "high polyreactivity"}
{"sequence": "QVQLVESGGGLVQAGGSLRLSCAASGRTLVRNAMGWYTQAPGKEREFVAGITESGDRTSYADSVKGRFTISRDNAKNTVYLQMNSLKPEDTAVYFCAASRPWDFYSFGFDYWGQGTQVTVSS", "polyreactivity (PSR sort gate)": "high polyreactivity"}
{"sequence": "QVQLVESGGGLVQAGGSLRLSCAASGRTLVWYTMGWYRQAPGKEREFVAVITTGSGSTYYADSVKGRFTISRDNAKNTVYLQMNSLKPEDTAVYYCNAGYGGYSYHYPPYEYWGQGTQVTVSS", "polyreactivity (PSR sort gate)": "low polyreactivity"}
{"sequence": "QVQLVESGGGLVQAGGSLRLSCAASGRTLVYAMGWYRQAPGKERELVATIYRGGNTYYADSVKGRFTISRDNAKNTVYLQMNSLKPEDTAVYYCNKPTYQWGQGTQVTVSS", "polyreactivity (PSR sort gate)": "high polyreactivity"}
{"sequence": "QVQLVESGGGLVQAGGSLRLSCAASGRTLVYNAMGWYRQAPGKERELVAAITTDGGDTYYADSVKGRFTISRDNAKNTVYLQMNSLKPEDTAVYYCAADYVALYYWYDYWGQGTQVTVSS", "polyreactivity (PSR sort gate)": "low polyreactivity"}
{"sequence": "QVQLVESGGGLVQAGGSLRLSCAASGRTLWANAMGWYRQAPGKERELVAAITYSGGSTHYADSVKGRFTISRDNAKNTVYLQMNSLKPEDTAVYYCNADYDSYYTYLYDYWGQGTQVTVSS", "polyreactivity (PSR sort gate)": "low polyreactivity"}
{"sequence": "QVQLVESGGGLVQAGGSLRLSCAASGRTLWLYTMGWYRQATGKERELVARSRSGGSTYYADSVKGRFTISRDNAKNTVYLQMNSLKPEDTAVYYCAAFPYWIHYEHYYWGQGTQVTVSS", "polyreactivity (PSR sort gate)": "high polyreactivity"}
{"sequence": "QVQLVESGGGLVQAGGSLRLSCAASGRTLWYYTMGWYRQAPGKERELVADITRGTSTNYADSVKGRFTISRDNAKNSVYLQMNSLKPEDTAVYYCNRAHGRSRYSRDYESWGQGTQVTVSS", "polyreactivity (PSR sort gate)": "low polyreactivity"}
{"sequence": "QVQLVESGGGLVQAGGSLRLSCAASGRTLWYYTMGWYRQAPGKERELVAVISTSGGRTYYADSVKGRFTISRDNAKNTVYLQMNSLKPEDTAVYYCAADGFQYTLGNYYWGQGTQVTVSS", "polyreactivity (PSR sort gate)": "high polyreactivity"}
{"sequence": "QVQLVESGGGLVQAGGSLRLSCAASGRTLYGNTMGWYRQAPGKERELVAAITNRGGSTTYADSVKGRFTISRDNAKNTVYLQMNSLKPEDTAVYYCNKDVTPLHYDSWGQGTQVTVSS", "polyreactivity (PSR sort gate)": "high polyreactivity"}
{"sequence": "QVQLVESGGGLVQAGGSLRLSCAASGRTLYGYAMGWYRQAPGKEREFVAAISRSGGRTYYADSVKGRFTISRDNAKNTVYLQMNSLKPEDTAVYYCAARQYQAKQPYGYYPGYGYWGQGTQVTVSS", "polyreactivity (PSR sort gate)": "high polyreactivity"}
{"sequence": "QVQLVESGGGLVQAGGSLRLSCAASGRTLYNYAKGWYRQAPGKERELDASITWSGGSTYYADSVKGRFTISRDYANNTVYLQMNSLKPEDTAVYYCAAESSPGTFVRYGYRRYYYWGQGTQVTVSS", "polyreactivity (PSR sort gate)": "low polyreactivity"}
{"sequence": "QVQLVESGGGLVQAGGSLRLSCAASGRTLYPYAMGWYRQAPGKERELVATITWGDGSTSYADSVKGRFTISRDNAKNTVYLQMNSLKPEDTAVYYCNVRISNTSYRYPTFDYWGQGTQVTVSS", "polyreactivity (PSR sort gate)": "low polyreactivity"}
{"sequence": "QVQLVESGGGLVQAGGSLRLSCAASGRTLYRNAMGWYRQAPGKERELVAAIKMRGGSTYADSVKGRFTISRDNAKNTVYLQMNSLKPEDTAVYYCAAASRSPYYYWGQGTQVTVSS", "polyreactivity (PSR sort gate)": "high polyreactivity"}
{"sequence": "QVQLVESGGGLVQAGGSLRLSCAASGRTLYRYAMGWYRQAPGKERELVAAIRSGGRTNYADSVKGRFTISRDNAKNTVYLQMNSLKPEDTAVYYCAARTLRYPSTYDYWGQGTQVTVSS", "polyreactivity (PSR sort gate)": "high polyreactivity"}
{"sequence": "QVQLVESGGGLVQAGGSLRLSCAASGRTLYSYAMGWYRQAPGKERELVAAITSGGRTYYADSVKGRFTISRDNAKNTVYLQMNRLTPEDTAVYYCNDRRTFPRYDRNYESWGQGTQVTVSS", "polyreactivity (PSR sort gate)": "high polyreactivity"}
{"sequence": "QVQLVESGGGLVQAGGSLRLSCAASGRTLYVYTMGWYRQAPGKERELVASISSGVGTNYADSVKGRFTISRDNAKNTVYLQMNSLKPEDTAVYYCAARFRYYRHYYWGQGTQVTVSS", "polyreactivity (PSR sort gate)": "high polyreactivity"}
{"sequence": "QVQLVESGGGLVQAGGSLRLSCAASGRTLYYYGMGWYRQAPGKERELVASITNGGNTNYADSVKGRFTISRDNAKNTVYLQMNSLKPEDTAVYYCAKDVPYWRPVVRYDYWGQGTQVTVSS", "polyreactivity (PSR sort gate)": "low polyreactivity"}
{"sequence": "QVQLVESGGGLVQAGGSLRLSCAASGRTSDVYAMGWYRQAPGKERALVAAISSGGSTSYADSVKGRFTISRDNAKNTVNLQMNSLKPEDTAVYYCAADSSGQSRFGYWGQGTQVTVSS", "polyreactivity (PSR sort gate)": "low polyreactivity"}
{"sequence": "QVQLVESGGGLVQAGGSLRLSCAASGRTSFGYAMGWYRQAPGKERELVAVISIGGTTYYADSVKGRFTISRDNAKNTVYLQMNSLKPEDTAVYYCAKDAETYYWGSYKSLYDYWGQGTQVTVSS", "polyreactivity (PSR sort gate)": "low polyreactivity"}
{"sequence": "QVQLVESGGGLVQAGGSLRLSCAASGRTSFNYTMGWYRQAPGKERELVAAITSGGDTYYADSVKGRFTISRDNAKNTVYLQMNSLKPEDTAVYYCNADPDFPSKFDDPYSYDYWGQGTQVNVSS", "polyreactivity (PSR sort gate)": "low polyreactivity"}
{"sequence": "QVQLVESGGGLVQAGGSLRLSCAASGRTSGFNTMGWYRQAPGKERELVAAISFSGGSTYYADSVKGRFTISRDNAKNTVYLQMNSLKPEDTAVYYCNALYRYLYRSGDYWGLGTQVTVSS", "polyreactivity (PSR sort gate)": "low polyreactivity"}
{"sequence": "QVQLVESGGGLVQAGGSLRLSCAASGRTSGFNTMGWYRQAPGKERELVAAISFSGGSTYYADSVKGRFTISRDNAKNTVYLQMNSLKPEDTAVYYCNALYRYLYRSGDYWGQGTQVTVSS", "polyreactivity (PSR sort gate)": "low polyreactivity"}
{"sequence": "QVQLVESGGGLVQAGGSLRLSCAASGRTSGFNTMGWYRQAPGKERELVAAISFSGGSTYYADSVKGRFTISRDYSKNTVYLQMNSLKPEDTAVYYCTALYRYLYRSGDYWGQGTQVTVSS", "polyreactivity (PSR sort gate)": "low polyreactivity"}
{"sequence": "QVQLVESGGGLVQAGGSLRLSCAASGRTSGVYSMGWYRQAPGKERELVAAISRSGDSTYYADSVKGRFTISRDNAKNTVYLQMNSLKPEDTAVYYCATTFKRSMYWGQGTQVTVSS", "polyreactivity (PSR sort gate)": "high polyreactivity"}
{"sequence": "QVQLVESGGGLVQAGGSLRLSCAASGRTSIGYARGWYRQAPGKERELVAVISIGGTTYYADSVKGRFTISRDNAKNTVYLQMNSLKPEDTAVYYCAADSFPAYLGFVGFDYWGQGTQVTVSS", "polyreactivity (PSR sort gate)": "low polyreactivity"}
{"sequence": "QVQLVESGGGLVQAGGSLRLSCAASGRTSILYAMGWYRQAPGKERELVATIYSGGRTYYADSVKGRFTISRDNAKNTVYLQMNSLKPEDTAVYYCAARPNATPRGQTKHYYWGQGTQVTVSS", "polyreactivity (PSR sort gate)": "high polyreactivity"}
{"sequence": "QVQLVESGGGLVQAGGSLRLSCAASGRTSKGNTMGWYRQAPGKEREFVATISRSGGSTYYADSVKGRFTISRDNAKNTVYLQMNSLKPEDTAVYYCAARISRQRSYSRDYWGQGTQVTVSS", "polyreactivity (PSR sort gate)": "high polyreactivity"}
{"sequence": "QVQLVESGGGLVQAGGSLRLSCAASGRTSLAYAMGWYRQAPGKERELVAAINTRGGSTYYADSVKGRFTISRDNAKNTVFLQINSLKPEDTAVYYCAKGPRLYFTRDKAHWKYDYWGQGTQVTVSS", "polyreactivity (PSR sort gate)": "low polyreactivity"}
{"sequence": "QVQLVESGGGLVQAGGSLRLSCAASGRTSLGYAMGWYRQAPGKERELVAAISGGTTYYADSVKGRCTISRDNAKNPVYLQMNSLKPEDTAVYYCNAVYVWFSGAPRRYTKRYYWGQGTQVTVSS", "polyreactivity (PSR sort gate)": "high polyreactivity"}
{"sequence": "QVQLVESGGGLVQAGGSLRLSCAASGRTSLRYSMGWYRQAPGKERELVAAITSSGATTYYADSVKGRFTISRDNAKNTVYLQMNSLKPEDTAVYYCAAVYSAKRGSGGFGYWGQGTQVTVSS", "polyreactivity (PSR sort gate)": "high polyreactivity"}
{"sequence": "QVQLVESGGGLVQAGGSLRLSCAASGRTSNFNAMGWYRQAPGKERELVAAINSDGSTYYADSVKGRFTISRDNAKNTVYLQMNSLKPEDTAVYYCAAVSLFRDSQFDYWGQGTQVTVSS", "polyreactivity (PSR sort gate)": "low polyreactivity"}
{"sequence": "QVQLVESGGGLVQAGGSLRLSCAASGRTSQYYAMGWYRPAPGKERELVASISRSGRTYYADSVKGRFTISRDNAKNTVYLQMNSLKPEDTAVYYCAAAKRTTHRYPYDYWGQGTQVTVSS", "polyreactivity (PSR sort gate)": "high polyreactivity"}
{"sequence": "QVQLVESGGGLVQAGGSLRLSCAASGRTSRHYAMGWYRQAPGKERELVAAISRSGGSTYYADSVKGRFTISRDNAKNTFYLQMNILKPDDSAVYYCNKDLKYYTSTYDYWGQGTQVTVSS", "polyreactivity (PSR sort gate)": "high polyreactivity"}
{"sequence": "QVQLVESGGGLVQAGGSLRLSCAASGRTSRYAMGWSRQAPGKERELVAAITSSGGRTYYADSVKGRFTISRDNAKNTVYLQMNSLKPEDTAVYYCAAGYLLWRTWDYAAGHNYWGQGTQVTVSS", "polyreactivity (PSR sort gate)": "high polyreactivity"}
{"sequence": "QVQLVESGGGLVQAGGSLRLSCAASGRTSSSNAMGWYRQAPGKERELVATISRTGSTYYADSVKGRFTISRDNAKNTVYLQMNSLKPEDTAVYYCNRYFSEALLHGSSYNRYYYWGQGTQVTVSS", "polyreactivity (PSR sort gate)": "low polyreactivity"}
{"sequence": "QVQLVESGGGLVQAGGSLRLSCAASGRTSTGYAMGWYRPAPGKERELVAGIDKIGGRTYYADSVKGRFTISRDNEKNTVYLQMNSLKPEDTAVYYCNRVPRRSIRYDYWGQGTKVTVSS", "polyreactivity (PSR sort gate)": "high polyreactivity"}
{"sequence": "QVQLVESGGGLVQAGGSLRLSCAASGRTTLLYAMGWYRQAPGKERELVATIRYTGGSTYADSVKGHFTISRDNAKNTVYLQMNILKPEDTAVYYCNARSYQYDGGHRYWGQGTQVTVSL", "polyreactivity (PSR sort gate)": "high polyreactivity"}
{"sequence": "QVQLVESGGGLVQAGGSLRLSCAASGRTVGVYAMGWYRQAPGKERELVATITSGASTNYADSVKARFTISRDNAKNTVYLQMTSLKPEDTAVYYCNARRVAYASYSHPRVLDDYWGQGTQVTVST", "polyreactivity (PSR sort gate)": "low polyreactivity"}
{"sequence": "QVQLVESGGGLVQAGGSLRLSCAASGRTVGWYAMGWYRQAPGKERELVAAITWRGGSTYYADSVKGRFTISRDNAKNTVYLQMTSLKPEDTAVYYCAAAAEKRSYYWGQGTQVTVSS", "polyreactivity (PSR sort gate)": "high polyreactivity"}
{"sequence": "QVQLVESGGGLVQAGGSLRLSCAASGRTVLHYDMGWYRQAPGKERELVASISSGVSTHYADSVKGRFTISRDNAKNTVYLQMNSLQPEDTAVYYCAARPYRFGRYGYDYDYWGQGTQVTVSS", "polyreactivity (PSR sort gate)": "high polyreactivity"}
{"sequence": "QVQLVESGGGLVQAGGSLRLSCAASGRTVWGYGMGWYRQAPGKERELVATISSGGSTYYADSVKGRFTISRDNAKNTVYLQMNSLKPEDTAVYYCAARPPRTYWRYQSDYWGLGTQVTVSS", "polyreactivity (PSR sort gate)": "high polyreactivity"}
